# In PMC8671946:
# Target: HER2/PD-L1 BsAb (humanized bispecific IgG1 subclass antibody targeting both HER2 and PD-L1)
# Assay: BLI; Octet RED96; antibody (10 ug/ml) immobilised on Protein A biosensors; 6xHis-tagged antigens two-fold serially titrated from 100 nM; PBS with 0.02% Tween 20 and 0.1% BSA, room temperature
substance,measurement,value
"human epidermal growth factor receptor 2 (HER2), recombinant, 6xHis-tagged (from UniProt P04626 23-652)",Kd,6.36 nM
